Article PMC8299537

Biological target: DPP9, short isoform (His-TEV-DPP9), co-purified with NLRP1ΔΔ (human), Q86TI2
Experiment: cryo-EM structure
Settings: remark: other sources report otherwise

- stoichiometry N: 2
B1: DPP9, short isoform (His-TEV-DPP9), co-purified with NLRP1ΔΔ, Q86TI2-1 1-863 (enzyme)
chain: MATTGTPTADRGDAAATDDPAARFQVQKHSWDGLRSIIHGSRKYSGLIVNKAPHDFQFVQKTDESGPHSHRLYYLGMPYGSRENSLLYSEIPKKVRKEALLLLSWKQMLDHFQATPHHGVYSREEELLRERKRLGVFGITSYDFHSESGLFLFQASNSLFHCRDGGKNGFMVSPMKPLEIKTQCSGPRMDPKICPADPAFFSFINNSDLWVANIETGEERRLTFCHQGLSNVLDDPKSAGVATFVIQEEFDRFTGYWWCPTASWEGSEGLKTLRILYEEVDESEVEVIHVPSPALEERKTDSYRYPRTGSKNPKIALKLAEFQTDSQGKIVSTQEKELVQPFSSLFPKVEYIARAGWTRDGKYAWAMFLDRPQQWLQLVLLPPALFIPSTENEEQRLASARAVPRNVQPYVVYEEVTNVWINVHDIFYPFPQSEGEDELCFLRANECKTGFCHLYKVTAVLKSQGYDWSEPFSPGEDEFKCPIKEEIALTSGEWEVLARHGSKIWVNEETKLVYFQGTKDTPLEHHLYVVSYEAAGEIVRLTTPGFSHSCSMSQNFDMFVSHYSSVSTPPCVHVYKLSGPDDDPLHKQPRFWASMMEAASCPPDYVPPEIFHFHTRSDVRLYGMIYKPHALQPGKKHPTVLFVYGGPQVQLVNNSFKGIKYLRLNTLASLGYAVVVIDGRGSCQRGLRFEGALKNQMGQVEIEDQVEGLQFVAEKYGFIDLSRVAIHGWSYGGFLSLMGLIHKPQVFKVAIAGAPVTVWMAYDTGYTERYMDVPENNQHGYEAGSVALHVEKLPNEPNRLLILHGFLDENVHFFHTNFLVSQLIRAGKPYQLQIYPNERHSIRCPESGEHYEVTLLHFLQEYL
